Where two headings read alike, the source gives them in different places.
Experiments:
Assay in all cases: fluorescence polarisation
[1] = target: FITC-labelled SMN^26–51, wild type (human) (UniProt Q16637)
[2] = target: FITC-labelled SMN^26–51 D44V (human) (UniProt Q16637)
[3] = target: FITC-labelled SMN^26–51, wild type (human) (UniProt Q16637); remark: listed apart in the source
[4] = target: FITC-labelled SMN^26–51, wild type (human) (UniProt Q16637); remark: listed apart in the source
[5] = target: FITC-labelled SMN^26–51 D44V (human) (UniProt Q16637); remark: listed apart in the source
[6] = target: FITC-labelled SMN^26–51, wild type (human) (UniProt Q16637); remark: listed apart in the source
[7] = target: FITC-labelled SMN^26–51, wild type (human) (UniProt Q16637); remark: listed apart in the source
[8] = target: FITC-labelled SMN^26–51, wild type (human) (UniProt Q16637); remark: listed apart in the source
[9] = target: FITC-labelled SMN^26–51 A46N (human) (UniProt Q16637)
[10] = target: FITC-labelled SMN^26–51 D35A (human) (UniProt Q16637)
[11] = target: FITC-labelled SMN^26–51 D36A (human) (UniProt Q16637)
[12] = target: FITC-labelled SMN^26–51 D44A (human) (UniProt Q16637)
[13] = target: FITC-labelled SMN^26–51 D44V (human) (UniProt Q16637); remark: listed apart in the source
[14] = target: FITC-labelled SMN^26–51 K41A (human) (UniProt Q16637)
[15] = target: FITC-labelled SMN^26–51 L39A (human) (UniProt Q16637)
[16] = target: FITC-labelled SMN^26–51 W34A (human) (UniProt Q16637)
[17] = target: FITC-labelled SMN^26–51 Y43A (human) (UniProt Q16637)
[18] = target: SMN^26–51 peptide containing phosphoserine at positions 28 and 31 (human) (UniProt Q16637)

Substance	Kd [1] [nM]	Kd [2] [nM]	Kd [3] [nM]	Kd [4] [nM]	Kd [5] [nM]	Kd [6] [nM]	Kd [7] [nM]	Kd [8] [nM]	Kd [9] [nM]	Kd [10] [nM]	Kd [11] [nM]	Kd [12] [nM]	Kd [13] [nM]	Kd [14] [nM]	Kd [15] [nM]	Kd [16] [nM]	Kd [17] [nM]	Kd [18] [nM]
Gemin2 (12–280) (natural protein)	7																	
Gemin2^95–280 (domain or fragment)	3.3	1.5	2.3	180	1800	2.2	5.2	2.4	42	6.8	8.3	5.3	8.4	4.8	74	16	510	4.2
